Data on 2 substances can be found in paper PMC8786603.

Read-outs that look alike come from different tables or passages of the source.

Common to all, as to experiment: cryo-EM structure
Assay [1] deals with SARS-CoV-2 Delta prefusion-stabilized soluble trimeric spike ectodomain (S-trimer) (SARS-CoV-2) (UniProt P0DTC2).
Assay [2] addresses SARS-CoV-2 Omicron prefusion-stabilized soluble trimeric spike ectodomain (S-trimer) (SARS-CoV-2) (UniProt P0DTC2).
For assay [3] the target is unchanged. This is another data set of the same source.

In assay [1], “SARS-CoV-2 Delta prefusion-stabilized soluble trimeric spike ectodomain (S-trimer) (from UniProt P0DTC2 14-1208) (natural protein)” yielded a stoichiometry N of 3 protomers. In the case of “SARS-CoV-2 Omicron prefusion-stabilized soluble trimeric spike ectodomain (S-trimer) (from UniProt P0DTC2 14-1208) (natural protein)”, the stoichiometry N in assay [2] and in assay [3] was 3 protomers in each case.
